Data from PMC9122904, “Insights into the client protein release mechanism of the ATP-independent chaperone Spy” (Nature Communications, 2022).
Substitutions are numbered along the chain they refer to. Names and notes keep the numbering of the source.

Key:
Assay in all cases: BLI; Octet RED96; client biotinylated and loaded on streptavidin sensors; Spy or Spy variant in solution at 0.25, 0.5, 1, 1.5 and 2 μM; 40 mM HEPES, 150 mM NaCl, pH 7.5; Kd calculated as koff/kon
Conditions in all cases: both partners purified
[1] = molecular target: T1, Spy D26E (UniProt P77754 24-161, D26E)
T1 construct: source: E. coli BL21 (DE3), purified (Ni-NTA, cation exchange, SEC); not shown: His6, N-terminal, cleaved; SUMO, N-terminal, cleaved
T1 sequence (looked up): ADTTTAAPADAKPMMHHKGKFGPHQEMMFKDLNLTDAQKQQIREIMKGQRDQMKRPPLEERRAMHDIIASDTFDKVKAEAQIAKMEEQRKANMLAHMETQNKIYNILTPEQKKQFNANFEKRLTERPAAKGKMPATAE

[2] = molecular target: T2, Spy D26K (UniProt P77754 24-161, D26K)
T2 construct: source: E. coli BL21 (DE3), purified (Ni-NTA, cation exchange, SEC); not shown: His6, N-terminal, cleaved; SUMO, N-terminal, cleaved
T2 sequence (looked up): T1 sequence (looked up) with E26K

[3] = molecular target: T3, Spy D26R (UniProt P77754 24-161, D26R)
T3 construct: source: E. coli BL21 (DE3), purified (Ni-NTA, cation exchange, SEC); not shown: His6, N-terminal, cleaved; SUMO, N-terminal, cleaved
T3 sequence (looked up): T1 sequence (looked up) with E26R

[4] = molecular target: T4, Spy wild type (Spy_(1-138)) (UniProt P77754 24-161)
T4 construct: Spy, ATP-independent periplasmic chaperone; also called WT; wt; source: E. coli BL21 (DE3), purified (Ni-NTA, cation exchange, SEC); not shown: His6, N-terminal, cleaved; SUMO, N-terminal, cleaved
T4 sequence (looked up): T1 sequence (looked up) with E26D
Outline: (§1)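 Biolayer interferometry used an Octet RED96: client proteins biotinylated with EZ-link NHS-biotin (1:1 molar ratio) were loaded on streptavidin sensors, dipped into 40 mM HEPES, 150 mM NaCl, pH 7.5 containing Spy protein at 0.25, 0.5, 1, 1.5 and 2 μM, then moved to Spy-free buffer. Wavelength-shift association and dissociation curves were fitted in SigmaPlot 12.0, giving observed association rate and koff. kon came from observed rate versus Spy concentration; Kd was koff/kon.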

[5] = molecular target: T5, Spy_(21-127) (UniProt P77754 44-150)
T5 construct: Spy chaperone, residues 21-127; source: E. coli BL21 (DE3), purified (Ni-NTA, cation exchange, SEC); not shown: His6, N-terminal, cleaved; SUMO, N-terminal, cleaved
T5 sequence (looked up): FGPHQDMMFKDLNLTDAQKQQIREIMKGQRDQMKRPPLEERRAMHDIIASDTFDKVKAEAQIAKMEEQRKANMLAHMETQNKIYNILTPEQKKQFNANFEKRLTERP
Outline: as §1

[6] = molecular target: T6, Spy_(27-124) (UniProt P77754 50-147)
T6 construct: source: E. coli BL21 (DE3), purified (Ni-NTA, cation exchange, SEC); not shown: His6, N-terminal, cleaved; SUMO, N-terminal, cleaved
T6 sequence (looked up): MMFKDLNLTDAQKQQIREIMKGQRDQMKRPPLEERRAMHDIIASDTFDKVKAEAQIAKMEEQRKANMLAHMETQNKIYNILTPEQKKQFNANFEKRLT
Outline: as §1

[7] = molecular target: T7, Spy_(29-138) (UniProt P77754 52-161)
T7 construct: source: E. coli BL21 (DE3), purified (Ni-NTA, cation exchange, SEC); not shown: His6, N-terminal, cleaved; SUMO, N-terminal, cleaved
T7 sequence (looked up): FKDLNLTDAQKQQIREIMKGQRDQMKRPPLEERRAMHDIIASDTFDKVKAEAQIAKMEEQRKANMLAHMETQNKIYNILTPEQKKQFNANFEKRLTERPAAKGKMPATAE
Outline: as §1

[8] = molecular target: T8, Spy_(24-127) (UniProt P77754 47-150)
T8 construct: Spy chaperone, residues 24-127; source: E. coli BL21 (DE3), purified (Ni-NTA, cation exchange, SEC); not shown: His6, N-terminal, cleaved; SUMO, N-terminal, cleaved
T8 sequence (looked up): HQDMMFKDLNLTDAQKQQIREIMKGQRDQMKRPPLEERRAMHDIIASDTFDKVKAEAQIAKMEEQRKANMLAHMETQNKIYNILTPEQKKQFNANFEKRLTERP
Outline: as §1

koff [1]: 0.196 s⁻¹
koff [2]: 0.0775 s⁻¹
koff [3]: 0.0811 s⁻¹
Kd [4]: 643 nM
Kd [5]: 1980 nM
Kd [6]: 283 nM
Kd [7]: 313 nM
Kd [8]: 1730 nM
B1: Im7 H40W L53A I54A (natural protein)
chain: MELKNSISDYTEAEFVQLLKEIEKENVAATDDVLDVLLEWFVKITEHPDGTDAAYYPSDNRDDSPEGIVKEIKEWRAANGKPGFKQG
modifications: biotin (EZ-link NHS-biotin, 1:1 molar ratio of biotin to protein)
notes: Im7 (colicin E7 immunity protein) with H40W L53A I54A; Spy was made with an N-terminal His6-SUMO tag that was cleaved; also called Im7AAW; partially folded client; source: purified by a similar procedure to Spy
